# Assay results as given in patent US7041463B2, “Orthologues of human receptors and methods of use” (Pharmacopeia Drug Discovery, Inc., priority 2000, dated 2006).
# Experiments:
# dog B1 = target: T1, dog B1 (Canis lupus familiaris, UniProt Q9BDQ5, D322E/F324Y/R319K); assay: [3H]-des-Arg10-kallidin binding, 293E membranes, dog B1 (canine/human chimera); details: 0.6 nM [3H]-dAKd
# T1 construct: the chimeric canine/human receptor described above was used in the experiments described below; C-terminal cytoplasmic tail of human bradykinin B1 receptor (fusion partner of the chimera); expressed in transfected cells; host or cells: 293-EBNA (293E) cells, membranes
# T1 sequence (Q9BDQ5 with tags, fused parts or gaps R319K/D322E/F324Y): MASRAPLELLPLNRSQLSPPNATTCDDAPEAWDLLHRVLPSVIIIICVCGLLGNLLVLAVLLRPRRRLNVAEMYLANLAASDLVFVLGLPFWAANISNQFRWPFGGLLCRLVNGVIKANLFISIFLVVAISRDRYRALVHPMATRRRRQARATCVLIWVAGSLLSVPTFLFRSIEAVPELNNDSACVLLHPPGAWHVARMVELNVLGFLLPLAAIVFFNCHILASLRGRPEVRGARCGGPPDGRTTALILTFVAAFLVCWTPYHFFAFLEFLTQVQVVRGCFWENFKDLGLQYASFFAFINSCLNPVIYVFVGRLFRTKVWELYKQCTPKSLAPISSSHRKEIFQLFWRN
# Description: Additionally, a canine/human chimeric bradykinin B1 receptor comprising amino acids 1 to 320 of the canine sequence and amino acids 319–353 of human bradykinin B1 receptor was generated. Any number of chimeric molecules, for example, a chimera comprising amino acids 1–315 of the canine sequence and amino acids 314–353 of the human sequence can be used.
# Membrane preparations for use in accordance with the methods of the present invention were generated as follows. 293E cells expressing B1 receptors were harvested and pelleted. Cells were washed once with PBS and once with a membrane buffer (for example, 10 mM HEPES pH 7.5, 1 μM phosphoramidon, 3 μM amastatin, 1 μM captopril, 2 μM dithiothreitol (DTT)). Cells were resuspended in membrane buffer and Dounce homogenized on ice 35 times. The membranes were collected by centrifugation at 15,000×g for 30 min. at 4° C. and resuspended in membrane buffer containing 0.2% bovine serum albumin (BSA) at a final concentration of approximately 5×10^7 cell equivalents per ml. Aliquots were flash frozen and stored at −80° C. […]
# (§1) The method of the present invention employs a binding assay such as the one described below. […] 50 μl of scintillation fluid was added to each well and plates were counted in a Wallac Microbeta® TriLux for 10 min. per well.
# CXCR2 receptor = assay: CXCR2 radioligand binding, 293E membranes, monkey/primate receptors; details: recombinant CXCR2 from six primate species
# Experimental: Membrane preparations for use in accordance with the methods of the present invention were generated as follows. 293E cell monolayers expressing CXCR2 receptors were washed twice with PBS and 5 ml of ice cold homogenizing buffer (for example, 10 mM HEPES pH 8.0, 10 mM EDTA). Cells were resuspended in membrane buffer and Dounce homogenized on ice 35 times. The membranes were collected by centrifugation at 15,000×g for 30 min. at 4° C. and resuspended in membrane storage buffer (10 mM Tris-HCl pH8.0, 1.2 mM MgSO4, 0.1 mM EDTA, 25 mM NaCl, 1 unit/ml bacitracin) at a final concentration of approximately 5×10^7 cell equivalents per ml. Aliquots were flash frozen and stored at −80° C. Frozen aliquots were subsequently thawed, diluted, and sonicated on ice using a Branson Sonifier® 250 (4×5 sec, 40% output).
# Prior to use in a binding assay, a membrane preparation is “calibrated” as described below to determine the amount of membrane preparation to be used. A frozen sample of a membrane preparation is thawed and the preparation diluted in assay buffer to obtain several different concentrations of membranes, for example, 1:5, 1:10, 1:20, 1:40 and so on. The diluted membrane preparation is sonicated in a bath style sonicator for 5 minutes at room temperature. Each dilution is plated in a 96-well plate, for example, with quintuplicate samples for binding of ligand and wells to evaluate non-specific binding in triplicate. The dilutions that yield approximately 200 cpm total counts are chosen for subsequent assays.
# For determining binding affinity for the orthologous CXCR2 receptors, described herein, the method of the present invention employs a binding assay such as the one described below. A suitable binding assay buffer for receptor binding consists of 10 mM Tris pH 8.0, 0.1 mM EDTA, 1.2 mM MgSO4, 25 mM NaCl and 0.03% CHAPS (Sigma, St. Louis, Mo.). […] 50 μl of scintillation fluid was added to each well and plates were counted in a Wallac Microbeta® TriLux for 1 min. per well.
# tree shrew B1 receptor = assay: [3H]-des-Arg10-kallidin binding, 293E membranes, tree shrew B1; set-up: species or system tree shrew (Tupaia minor); details: read-out: average dissociation constant (KD)
# Experimental: (§2) Membrane preparations for use in accordance with the methods of the present invention were generated as follows. 293E cells expressing B1 receptors were harvested and pelleted. Cells were washed once with PBS and once with a membrane buffer (for example, 10 mM HEPES pH 7.5, 1 μM phosphoramidon, 3 μM amastatin, 1 μM captopril, 2 μM dithiothreitol (DTT)). Cells were resuspended in membrane buffer and Dounce homogenized on ice 35 times. The membranes were collected by centrifugation at 15,000×g for 30 min. at 4° C. and resuspended in membrane buffer containing 0.2% bovine serum albumin (BSA) at a final concentration of approximately 5×10^7 cell equivalents per ml. Aliquots were flash frozen and stored at −80° C. Frozen aliquots were subsequently thawed, diluted, and sonicated on ice using a Branson Sonifier® 250 (4×5 sec, 40% output).
# (§3) Prior to use in a binding assay, a membrane preparation is “calibrated” as described below to determine the amount of membrane preparation to be used. […]
# as §1
# [1] = target: B1 receptors (species homologues); assay: [3H]-des-Arg10-kallidin binding across all cloned B1 orthologues; details: 0.6 nM or 1.5 nM (rat) [3H]-dAKd
# Experimental: as §2, §3, §1
# [2] = target: pig bradykinin B1 receptor (UniProt Q8HZN9); assay: radioligand competition binding
# Chain of pig bradykinin B1 receptor (Q8HZN9 whole entry): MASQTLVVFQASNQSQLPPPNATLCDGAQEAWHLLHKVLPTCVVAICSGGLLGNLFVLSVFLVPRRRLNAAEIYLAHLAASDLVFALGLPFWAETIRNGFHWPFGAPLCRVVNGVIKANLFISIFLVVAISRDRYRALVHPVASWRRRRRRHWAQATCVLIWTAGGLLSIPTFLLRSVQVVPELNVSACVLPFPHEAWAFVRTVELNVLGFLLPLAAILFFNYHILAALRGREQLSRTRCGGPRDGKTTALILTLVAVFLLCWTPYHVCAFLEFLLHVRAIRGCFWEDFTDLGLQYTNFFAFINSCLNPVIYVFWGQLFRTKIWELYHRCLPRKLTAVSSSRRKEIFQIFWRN
# [3] = target: rhesus macaque bradykinin B1 receptor (UniProt Q8HZP2); assay: radioligand competition binding
# [4] = target: canine/human chimeric bradykinin B1 receptor (UniProt Q9BDQ5); assay: radioligand competition binding
# [5] = target: tree shrew bradykinin B1 receptor (UniProt Q8HZP1); assay: radioligand competition binding
# Chain of tree shrew bradykinin B1 receptor (Q8HZP1 whole entry): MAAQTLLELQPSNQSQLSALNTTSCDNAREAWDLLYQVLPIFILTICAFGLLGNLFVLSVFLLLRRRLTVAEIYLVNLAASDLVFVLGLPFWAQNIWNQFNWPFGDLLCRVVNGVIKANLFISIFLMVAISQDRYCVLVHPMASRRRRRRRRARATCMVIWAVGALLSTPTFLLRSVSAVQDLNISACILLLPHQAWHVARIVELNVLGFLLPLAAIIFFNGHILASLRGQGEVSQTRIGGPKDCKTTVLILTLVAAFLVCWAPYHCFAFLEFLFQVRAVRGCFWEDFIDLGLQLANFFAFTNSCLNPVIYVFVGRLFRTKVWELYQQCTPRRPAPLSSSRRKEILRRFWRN
# [6] = target: rabbit bradykinin B1 receptor (rabbit) (UniProt P48748); assay: radioligand competition binding
# Chain of rabbit bradykinin B1 receptor (rabbit) (P48748 whole entry): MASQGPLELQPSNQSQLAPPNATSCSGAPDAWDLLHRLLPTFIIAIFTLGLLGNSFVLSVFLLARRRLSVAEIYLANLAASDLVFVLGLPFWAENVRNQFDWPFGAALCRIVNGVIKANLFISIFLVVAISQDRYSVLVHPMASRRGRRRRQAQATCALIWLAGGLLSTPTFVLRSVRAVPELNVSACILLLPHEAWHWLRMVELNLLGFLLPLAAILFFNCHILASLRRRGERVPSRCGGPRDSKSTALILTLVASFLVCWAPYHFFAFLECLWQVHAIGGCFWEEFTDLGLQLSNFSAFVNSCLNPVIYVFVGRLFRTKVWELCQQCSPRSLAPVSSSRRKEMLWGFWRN
# [7] = target: human bradykinin B1 receptor (human) (UniProt P46663); assay: radioligand competition binding
# [8] = target: pig bradykinin B1 receptor (UniProt Q8HZN9); assay: radioligand saturation binding; legend: [3H]-des-Arg10-kallidin
# [9] = target: rhesus macaque bradykinin B1 receptor (UniProt Q8HZP2); assay: as above
# [10] = target: canine/human chimeric bradykinin B1 receptor (UniProt Q9BDQ5); assay: as above
# [11] = target: tree shrew bradykinin B1 receptor (UniProt Q8HZP1); assay: as above
# [12] = target: rabbit bradykinin B1 receptor (rabbit) (UniProt P48748); assay: as above
# [13] = target: human bradykinin B1 receptor (human) (UniProt P46663); assay: as above
# Chain of [des-Arg^10] [Leu^9]kallidin (P01042 whole entry, looked up): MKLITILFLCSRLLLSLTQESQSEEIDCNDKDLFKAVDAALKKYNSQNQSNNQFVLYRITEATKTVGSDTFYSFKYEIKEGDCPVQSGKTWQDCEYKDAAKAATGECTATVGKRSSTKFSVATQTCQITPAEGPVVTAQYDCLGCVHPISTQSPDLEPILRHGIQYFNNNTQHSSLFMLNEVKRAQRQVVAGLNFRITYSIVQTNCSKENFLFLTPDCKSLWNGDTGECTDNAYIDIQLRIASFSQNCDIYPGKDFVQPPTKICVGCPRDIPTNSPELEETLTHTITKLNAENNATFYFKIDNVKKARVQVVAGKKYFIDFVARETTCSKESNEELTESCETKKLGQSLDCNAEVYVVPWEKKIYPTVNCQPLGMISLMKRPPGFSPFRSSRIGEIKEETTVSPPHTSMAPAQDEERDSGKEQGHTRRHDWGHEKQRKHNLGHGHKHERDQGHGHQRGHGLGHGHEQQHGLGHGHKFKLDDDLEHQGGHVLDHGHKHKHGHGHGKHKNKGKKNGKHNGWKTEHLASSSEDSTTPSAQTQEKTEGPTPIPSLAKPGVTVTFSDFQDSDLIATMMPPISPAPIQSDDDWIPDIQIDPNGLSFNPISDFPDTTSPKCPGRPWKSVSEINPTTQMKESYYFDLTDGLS
# Chain of des-Arg^10-kallidin (P01042 whole entry, looked up): as above
compound,measurement,setting,value
[des-Arg^10] [Leu^9]kallidin [dALKd],"affinity (K1) at dog B1, in words",dog B1,more than an order of magnitude weaker
interleukin 8: native ligand of CXCR2,"binding to the encoded receptors, in words",CXCR2 receptor,capable of binding
"N=C(N)NCCC[C@H](NC(=O)[C@@H](N)CCCCN)C(=O)N1CCC[C@H]1C(=O)N1CCC[C@H]1C(=O)NCC(=O)N[C@@H](Cc1ccccc1)C(=O)N[C@@H](CO)C(=O)N1CCC[C@H]1C(=O)N[C@@H](Cc1ccccc1)C(=O)O [dAKd, des-Arg^10-Kallidin]",Kd,tree shrew B1 receptor,4.2 nM
same,"affinity (K1) at all B1 species homologues, in words",[1],approximately equipotent
same,"affinity (K1) at all B1 species homologues, in words",[1]; listed as dAKD,strong affinity
ENA-78: ligand bound by the encoded CXCR2 receptors,"binding to the encoded receptors, in words",CXCR2 receptor,capable of binding
[des-Arg^10] [Leu^9]kallidin (from UniProt P01042 380-388),Ki,[2],9.5 nM
same,Ki,[3],9.5 nM
same,Ki,[4],120 nM
same,Ki,[5],22 nM
same,Ki,[6],9.3 nM
same,Ki,[7],4.6 nM
des-Arg^10-kallidin (from UniProt P01042 380-388),Ki,[2],2.3 nM
same,Ki,[3],3.3 nM
same,Ki,[4],4.2 nM
same,Ki,[5],6.1 nM
same,Ki,[6],3.4 nM
same,Ki,[7],1.5 nM
same,Kd,[8],1.9 ?
same,Kd,[9],2.8 ?
same,Kd,[10],3.3 ?
same,Kd,[11],4.2 ?
same,Kd,[12],1.3 ?
same,Kd,[13],0.6 ?
Gro-alpha: ligand bound by the encoded CXCR2 receptors,"binding to the encoded receptors, in words",CXCR2 receptor,capable of binding
